# Reference: paper PMC6697748, “Ca^2+-regulated Ca^2+ channels with an RCK gating ring control plant symbiotic associations” (Nature Communications, 2019)
# B1: LjCASTOR soluble domain (residues 312-853) (domain or fragment, Lotus japonicus, UniProt Q5H8A6 312-853, looked up)
# chain: KGKSEVVEQNHTLILGWSDKLGSLLNQLAIANESLGGGTIAVMAERDKEDMELDIGKMEFDFKGTSVICRSGSPLILADLKKVSVSKARTIIVLAEDGNADQSDARALRTVLSLTGVKEGLRGHIVVEMSDLDNEVLVKLVGGDLVETVVAHDVIGRLMIQCARQPGLAQIWEDILGFENCEFYIKRWPQLDGMLFEDVLISFPAAIPCGIKVASYGGKIILNPDDSYVLQEGDEVLVIAEDDDTYAPAPLPMVRRGSLPKDFVYPKSPERILFCGWRRDMEDMITVLDASLAPDSELWMFNDVPEKEREKKLIDGGLDISRLENISLVNREGNAVIRRHLESLPLESFDSILILADESVEDSAIQADSRSLATLLLIRDIQARRLPYVAMASQTQGGNFSKGSWIGEMKQASDKTVIISEILDPRTKNLLSMSKISDYVLSNELVSMALAMVAEDRQINDVLEELFAEEGNEMHIRQADIYLREGEEMSFYEIMLRARQRREILIGYRLANAERAVINPPAKTGRRKWSLKDVFVVITEKE
# notes: CASTOR ion channel from Lotus japonicus, soluble domain after the transmembrane region, residues 312-853; two tandem RCK domains (RCK1 320-552, linker 553-580, RCK2 581-853); Cloned into pQE60 with a C-terminal hexahistidine tag; no removal of the tag is described; A selenomethionine-substituted form was used for phasing only; Residues 699-726 have no electron density; also called LjCASTOR RCK …
# Molecular target: the molecule itself
# Assay: crystal structure; Ca2+-bound state: protein purified with 1 mM CaCl2 in 50 mM Tris-HCl pH 8.0, 250 mM NaCl; crystals in 21% PEG 550 MME, 50 mM MgAc2, 100 mM Tris pH 8.2, 20 °C; space group I4, one subunit per asymmetric unit, tetramer by crystallographic fourfold; 1.6 Å
protein,measurement,value
B1,stoichiometry N,4
